Reference: article PMC3792639, “Complex structure of type VI peptidoglycan muramidase effector and a cognate immunity protein” (Acta Crystallographica Section D: Biological Crystallography, 2013)
Numbering of substitutions follows the chain as printed.

T1: Tse3 (type VI secretion exported 3), native recombinant protein (P. aeruginosa, UniProt Q9HYC5 1-408)
T1 construct: Tse3, type VI secretion exported 3, peptidoglycan muramidase effector of Pseudomonas aeruginosa; full-length, synthetic gene in pET-22b (NdeI/XhoI); Removal of the His tag is not mentioned; also called muramidase effector; source: E. coli BL21(DE3), purified (Ni-NTA, cation exchange, SEC)
T1 sequence: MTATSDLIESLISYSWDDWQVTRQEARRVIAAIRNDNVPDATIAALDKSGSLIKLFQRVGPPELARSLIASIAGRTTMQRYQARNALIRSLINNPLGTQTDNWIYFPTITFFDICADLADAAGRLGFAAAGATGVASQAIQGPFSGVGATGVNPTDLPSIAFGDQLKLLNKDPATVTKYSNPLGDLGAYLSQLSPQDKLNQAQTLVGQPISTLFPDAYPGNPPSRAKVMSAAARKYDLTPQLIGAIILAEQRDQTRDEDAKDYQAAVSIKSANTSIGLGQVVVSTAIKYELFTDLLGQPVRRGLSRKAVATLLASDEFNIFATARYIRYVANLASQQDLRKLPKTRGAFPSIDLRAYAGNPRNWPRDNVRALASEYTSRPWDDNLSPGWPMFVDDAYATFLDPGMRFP

B1: Tsi3, truncated, without the N-terminal signal peptide (wild type) (natural protein)
chain: GVDFDKTLTHPNGLVVERPVGFDARRSAEGFRFDEGGKLRNPRQLEVQRQDAPPPPDLASRRLGDGEARYKVEEDDGGSAGSEYRLWAAKPAGARWIVVSASEQSEDGEPTFALAWALLERARLQ
notes: Tsi3, immunity protein of Tse3, Pseudomonas aeruginosa; truncated, without the N-terminal signal peptide (residues 1-20); synthetic gene in pET-22b (NdeI/XhoI); also called wild-type Tsi3; cognate immunity protein; source: E. coli BL21(DE3), purified (Ni-NTA, ion exchange, SEC)
B2: Tsi3 E103A (natural protein)
chain: B1 chain with E83A
notes: Tsi3, Pseudomonas aeruginosa, mutant of the truncated construct without the signal peptide (residues 1-20)
B3: Tsi3 E126A (natural protein)
chain: B1 chain with E106A
notes: as for B2
B4: Tsi3 Q124A (natural protein)
chain: B1 chain with Q104A
notes: as for B2
B5: Tsi3 S99A (natural protein)
chain: B1 chain with S79A
notes: as for B2

These binders were tested against T1, Tse3 (type VI secretion exported 3), … (assay: not stated; stoichiometry observed in solution; method not given). Details: both partners purified.
B1 was tested, and the “stoichiometry N” value was 1.

Each binder was assayed against T1, Tse3 (type VI secretion exported 3), … (assay: SPR; Biacore 3000, 298 K; Tse3 immobilised on a CM5 chip (2689.1-3396.3 RU); Tsi3 injected, single-cycle kinetics, five concentrations (0.02-1.62 µM for wild type, E103A, Q124A; 0.1-8.1 µM for R60A, S99A, E126A); running buffer 50 mM HEPES pH 7.5, 100 mM NaCl, 0.005% Tween-20; 1:1 Langmuir fit). Details: both partners purified.
For B1, the Kd was 28.1 nM and the kon was 12900 M⁻¹ s⁻¹.
For B2, the Kd was 43.6 nM and the kon was 14300 M⁻¹ s⁻¹.
B3 showed a Kd of 417 nM and a kon of 12100 M⁻¹ s⁻¹.
Binder B4 has a Kd of 58.8 nM and a kon of 17300 M⁻¹ s⁻¹.
For B5, the Kd was 3290 nM and the kon was 8990 M⁻¹ s⁻¹.
